One assay addresses RBD-VLP (SARS-CoV-2) (UniProt P0DTC2).
Assay [1] addresses spike glycoprotein of wild type SARS-CoV-2 virus (SARS-CoV-2) (UniProt P0DTC2). The assay can be described thus: cell-based or functional assay.

pIC50: −log10 of the molar value.

Regarding VHH72-Fc, the pIC50 with RBD-VLP (SARS-CoV-2) is 8.70.

As for CR3022 (antibody), the Neutralization by PRNT EC50 in assay [1] stood at 42 nM.

What is called pIC50 is the negative decadic logarithm of the IC50, by convention in mol/L. The low end stands for a large IC50, the high end for a small IC50.

(Values after patent publication US20230279079A1.)
